Primed or numbered codes have the meaning given here. Ends that are not written are not given here. FITC′ = not defined here
What was measured:
[1] = target: T1, TGFβ receptor II (TβR2) on human dermal fibroblasts (HDFs) (human, UniProt P37173 23-567); assay: immunofluorescence of HDFs with anti-TβR2 antibody and FITC signal of the peptide
T1 construct: whole, on cells; Endogenous receptor on HDFs cultured at 4.5 g/L glucose; also called TGFβRII

[2] = target: T2, TGFβ receptor II (TβR2), R&D, coated on ELISA plate; assay: ELISA-like binding assay, receptor coated on plate, FITC fluorescence of bound peptide
T2 construct: Bought protein (R&D), coated at 20 nM; also called TGFβRII; TβRII
Source text: We synthesized a peptide […]-FITC (PTβR2I), based on the sequence from a phage display library that binds specifically to […] and interactions between TβR2 and TGFβ1.63-65 We first examined the specific binding of PTβR2I with TβR2 using an ELISA-like binding assay. TGFβ receptor I (TβR1), TGFβ receptor III (TβR3), and IgG were used as controls. […] This finding was further validated on the cellular level. We used human dermal fibroblasts (HDFs) to study the binding affinity of PTβR2I to TβR2 under a glucose level of 4.5 g/L, which mimics the hyperglycemic conditions of diabetes. With PTβR2I added, the HDF binding sites on HDF of TβR2 were occupied, so the TβR2 could not be detected by immunofluorescence (FIG. 5F).
To test the ability of PTβR2I to bind to TβR2, a binding assay was performed. TβR1, TβR3, and IgG were used as controls. In brief, ELISA plates (Costar) were coated with 20 nM of TβR2 (R&D), TβR1 (R&D), or IgG (R&D) and incubated at 4° C. overnight. The plate was blocked with Tris-buffered Saline (TBS) containing 5% bovine serum albumin (BSA) for 1 hour. Then PTβR2I (0.5 μg/mL) was added to the plate and incubated for 2 hours. The fluorescence intensity was read by a microplate reader (Molecular Devices) with a predefined wavelength (excitation/emission=485/535 nm).

T1 sequence (P37173 23-567): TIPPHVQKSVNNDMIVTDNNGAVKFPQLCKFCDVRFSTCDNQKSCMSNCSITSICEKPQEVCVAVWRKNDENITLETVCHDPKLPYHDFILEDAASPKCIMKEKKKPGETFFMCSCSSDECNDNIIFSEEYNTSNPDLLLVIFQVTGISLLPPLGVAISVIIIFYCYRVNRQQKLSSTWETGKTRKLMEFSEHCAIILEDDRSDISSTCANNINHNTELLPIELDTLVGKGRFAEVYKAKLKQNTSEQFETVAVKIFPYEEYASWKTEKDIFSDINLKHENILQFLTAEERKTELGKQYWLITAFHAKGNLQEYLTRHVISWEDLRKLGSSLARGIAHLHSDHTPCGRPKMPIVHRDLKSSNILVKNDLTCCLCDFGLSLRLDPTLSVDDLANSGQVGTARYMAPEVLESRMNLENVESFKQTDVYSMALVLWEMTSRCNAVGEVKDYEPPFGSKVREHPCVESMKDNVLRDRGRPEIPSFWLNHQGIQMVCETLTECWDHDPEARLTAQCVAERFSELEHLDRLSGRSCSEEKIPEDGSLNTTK
T2 sequence (P37173 whole entry): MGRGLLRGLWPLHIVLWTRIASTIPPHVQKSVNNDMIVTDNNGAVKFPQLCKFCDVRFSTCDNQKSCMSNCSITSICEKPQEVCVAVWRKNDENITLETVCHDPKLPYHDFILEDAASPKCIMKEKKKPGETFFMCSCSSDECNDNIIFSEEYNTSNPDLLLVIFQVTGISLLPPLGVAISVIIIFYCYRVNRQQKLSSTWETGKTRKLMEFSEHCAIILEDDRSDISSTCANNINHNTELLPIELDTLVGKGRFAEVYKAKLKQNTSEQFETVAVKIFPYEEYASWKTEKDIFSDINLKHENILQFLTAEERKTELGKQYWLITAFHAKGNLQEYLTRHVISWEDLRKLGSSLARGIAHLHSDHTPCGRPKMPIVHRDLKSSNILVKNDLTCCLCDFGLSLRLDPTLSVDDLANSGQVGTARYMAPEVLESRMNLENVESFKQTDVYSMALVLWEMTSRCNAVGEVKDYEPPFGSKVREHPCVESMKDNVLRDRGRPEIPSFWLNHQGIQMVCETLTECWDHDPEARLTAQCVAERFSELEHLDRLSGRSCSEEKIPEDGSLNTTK

ECGLLPVGRPDRVWRLCK-{FITC′} (cysteine pairing not given here) [peptide-based TGFβ receptor II inhibitor (PTβR2I), ECGLLPVGRPDRVWRLCK-FITC]
binding result [1]: binds | Kd [2]: 3.4 µM
